# Measurements as given in PMC10454739, “Further Developments towards a Minimal Potent Derivative of Human Relaxin-2” (International Journal of Molecular Sciences, 2023).
# What was measured:
# [1] = target: T1, 7BP (RXFP1 ectodomain fused to the single trans-membrane-spanning domain of CD8) (Homo sapiens, UniProt Q9HBX9); assay: Competitive binding assay with Eu3+-labeled H2 relaxin in HEK-7BP cells; settings: whole-cell competition binding vs Eu3+-labeled H2 relaxin, HEK cells expressing 7BP; one-site fit; mean ± S.E.M., n of experiments in brackets
# T1 construct: contains the RXFP1 ectodomain fused to the single trans-membrane-spanning domain of CD8; expressed in transfected cells; host or cells: HEK cells (HEK-7BP)
# T1 sequence (Q9HBX9 1-409 limits assumed): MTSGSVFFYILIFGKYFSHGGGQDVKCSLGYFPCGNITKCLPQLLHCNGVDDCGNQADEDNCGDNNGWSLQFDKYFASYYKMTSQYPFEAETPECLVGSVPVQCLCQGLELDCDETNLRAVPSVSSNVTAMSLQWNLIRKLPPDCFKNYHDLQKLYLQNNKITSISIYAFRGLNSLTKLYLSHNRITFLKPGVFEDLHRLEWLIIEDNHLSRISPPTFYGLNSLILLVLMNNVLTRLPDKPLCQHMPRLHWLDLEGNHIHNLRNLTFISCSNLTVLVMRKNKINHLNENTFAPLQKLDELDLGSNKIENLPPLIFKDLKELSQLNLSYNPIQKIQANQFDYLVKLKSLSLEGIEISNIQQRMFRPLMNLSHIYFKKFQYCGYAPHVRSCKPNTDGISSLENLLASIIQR
# Procedure: Human embryonic kidney (HEK-293T) cells stably transfected with RXFP1 were cultured in RPMI 1640 medium supplemented with 10% fetal calf serum, 100 μg mL^−1 penicillin, 100 μg mL^−1 streptomycin, and 2 mM of L-glutamine and plated into 96-well plates pre-coated with poly-L-lysine for whole-cell binding assays (Merck, Darmstadt, Germany). Competition binding experiments using Eu^3+-labeled H2 relaxin in the absence or presence of increasing concentrations of unlabeled H2 relaxin B-chain derivatives were conducted as previously described [13]. All data are presented as the mean ± S.E.M. of the % specific binding of triplicate wells, repeated in at least three separate experiments, and curves were fitted using one-site binding curves in GraphPad Prism 9 (GraphPad Inc., San Diego, CA, USA).
# RXFP1 = target: T2, RXFP1 (Homo sapiens, UniProt Q9HBX9); assay: cAMP activity assay in HEK-RXFP1 cells (pCRE β-gal reporter); assay type: cell-based; settings: HEK-RXFP1 cells stably transfected with pCRE β-gal reporter, 37 °C for 6 h; four-parameter fit; mean ± S.E.M., n in brackets
# T2 construct: expressed in transfected cells; host or cells: HEK-293T
# T2 sequence (Q9HBX9 1-757): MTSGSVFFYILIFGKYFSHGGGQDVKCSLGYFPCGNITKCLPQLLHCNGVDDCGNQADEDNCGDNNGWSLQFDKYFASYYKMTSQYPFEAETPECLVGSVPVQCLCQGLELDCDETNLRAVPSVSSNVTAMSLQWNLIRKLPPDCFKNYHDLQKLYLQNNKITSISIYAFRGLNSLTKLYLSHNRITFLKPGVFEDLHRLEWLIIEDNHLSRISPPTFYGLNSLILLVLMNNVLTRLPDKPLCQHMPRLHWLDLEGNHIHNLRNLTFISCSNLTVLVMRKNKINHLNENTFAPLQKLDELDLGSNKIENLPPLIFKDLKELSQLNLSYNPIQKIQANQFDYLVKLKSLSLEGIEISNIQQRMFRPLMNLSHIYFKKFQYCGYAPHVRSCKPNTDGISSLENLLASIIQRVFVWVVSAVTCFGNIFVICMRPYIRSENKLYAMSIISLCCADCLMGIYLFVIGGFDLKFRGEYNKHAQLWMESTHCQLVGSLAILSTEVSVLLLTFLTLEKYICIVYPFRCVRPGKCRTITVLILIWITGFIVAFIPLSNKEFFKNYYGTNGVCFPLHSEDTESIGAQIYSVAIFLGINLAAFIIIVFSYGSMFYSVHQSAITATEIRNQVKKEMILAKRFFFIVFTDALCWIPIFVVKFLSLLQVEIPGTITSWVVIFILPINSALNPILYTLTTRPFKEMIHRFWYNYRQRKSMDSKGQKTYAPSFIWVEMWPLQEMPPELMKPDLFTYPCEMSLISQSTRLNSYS
# Procedure: The ability of peptide analogs to activate cAMP in HEK-RXFP1 cells stably transfected with a pCRE β-gal reporter gene construct was tested as described in detail previously [13]. Cells were stimulated with increasing concentrations of peptide analogs in parallel to H2 relaxin (positive) or media (negative) controls, then incubated at 37 °C for 6 h, after which the media were aspirated, and the cells were frozen at −80 °C overnight. The following day, cAMP-driven β-gal expression was determined in cell lysates as described [32]. Experiments were performed in triplicate at least 3 times, and data were fitted to a four-parameter sigmoidal dose–response curve using GraphPad Prism 9 to determine ligand potency (pEC50).
substance,measurement,setting,value
"B13-31: N-terminally truncated single-chain H2 relaxin analog, residues 13–31 (RELVRAQIAICGMSTWSKR; Relaxin B chain; UniProt P04090 37-55, looked up, fragment)",7BP Eu-H2 pKi,[1],< 5
same,cAMP pEC50,RXFP1,No activity
